The text below walks through data of patent US10328136.

This experiment addresses nectin-1 (human) (UniProt Q15223). Kind of experiment: cell-based or functional assay.
Chain of UniProt Q15223 (Q15223 31-517): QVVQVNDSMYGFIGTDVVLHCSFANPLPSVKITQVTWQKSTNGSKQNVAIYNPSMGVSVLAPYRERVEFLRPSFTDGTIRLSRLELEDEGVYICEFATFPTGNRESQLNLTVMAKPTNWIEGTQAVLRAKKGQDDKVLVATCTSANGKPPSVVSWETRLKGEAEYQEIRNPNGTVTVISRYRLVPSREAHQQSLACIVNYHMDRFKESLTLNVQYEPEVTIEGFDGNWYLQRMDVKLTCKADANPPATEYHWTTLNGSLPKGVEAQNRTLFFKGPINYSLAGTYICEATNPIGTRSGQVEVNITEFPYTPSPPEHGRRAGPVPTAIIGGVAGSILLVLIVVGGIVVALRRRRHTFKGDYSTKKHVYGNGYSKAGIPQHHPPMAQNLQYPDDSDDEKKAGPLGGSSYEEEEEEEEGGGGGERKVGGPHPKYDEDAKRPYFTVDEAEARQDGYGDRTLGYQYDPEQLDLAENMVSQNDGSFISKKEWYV

In the case of “wild-type glycoprotein D (gD) of HSV-1 strain KOS”, the entry of QOZHG into J/C cells (X-gal staining at 24 hpi, MOI=10) came out at 100%.
